Measured values from article PMC3675495.

Target: Su(Hw) (Drosophila (endogenous in embryo nuclear extract)) (UniProt P08970)
Assay: co-IP

Chain of UniProt P08970 (P08970 whole entry): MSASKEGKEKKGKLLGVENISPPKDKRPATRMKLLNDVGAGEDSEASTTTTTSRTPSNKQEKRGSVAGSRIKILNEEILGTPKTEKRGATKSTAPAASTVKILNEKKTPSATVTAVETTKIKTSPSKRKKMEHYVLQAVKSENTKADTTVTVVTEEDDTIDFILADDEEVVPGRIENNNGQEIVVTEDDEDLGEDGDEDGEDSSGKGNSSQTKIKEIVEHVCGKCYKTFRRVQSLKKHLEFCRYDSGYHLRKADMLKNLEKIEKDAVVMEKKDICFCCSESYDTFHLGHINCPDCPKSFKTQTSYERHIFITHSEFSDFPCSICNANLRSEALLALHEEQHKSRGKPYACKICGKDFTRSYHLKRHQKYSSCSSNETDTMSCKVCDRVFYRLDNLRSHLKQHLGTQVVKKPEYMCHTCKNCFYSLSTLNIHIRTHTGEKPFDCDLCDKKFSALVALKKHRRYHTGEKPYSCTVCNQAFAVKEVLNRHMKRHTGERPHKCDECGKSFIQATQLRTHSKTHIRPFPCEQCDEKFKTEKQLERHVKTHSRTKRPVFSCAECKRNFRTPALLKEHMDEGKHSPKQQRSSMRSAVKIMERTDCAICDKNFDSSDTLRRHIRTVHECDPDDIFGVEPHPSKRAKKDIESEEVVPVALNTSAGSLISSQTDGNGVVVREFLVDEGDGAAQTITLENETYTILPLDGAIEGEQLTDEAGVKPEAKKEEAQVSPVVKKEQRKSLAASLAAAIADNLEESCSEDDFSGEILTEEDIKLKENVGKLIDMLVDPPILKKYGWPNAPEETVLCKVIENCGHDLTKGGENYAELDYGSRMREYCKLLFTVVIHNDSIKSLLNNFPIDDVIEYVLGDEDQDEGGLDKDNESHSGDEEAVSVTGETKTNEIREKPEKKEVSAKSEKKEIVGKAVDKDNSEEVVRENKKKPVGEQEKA

Substance OSA, Q8IN94 1-2716 has a percent co-precipitated of 0.5%.
